# Experimental data as given in paper PMC3581363 (Biochemistry, 2013).
# B1: sigma-1 receptor cysteine 94 alanine / methionine 170 cysteine (C94A/M170C) double mutant (receptor, guinea pig, UniProt Q60492 1-223, looked up)
# chain: MQWAVGRRWLWVALFLAAVAVLTQIVWLWLGTQNFVFQREEIAQLARQYAGLDHELAFSKLIVELRRLHPVHVLPDEELQWVFVNAGGWMGAMALLHASLSEYVLLFGTALGSPRHSGRYWAEISDTIISGTFHQWREGTTKSEVFYPGETVVHGPGEATAVEWGPNTWCVEYGRGVIPSTLGFALADTVFSTQDFLTLFYTLRVYARALQLELTTYLFGQDP
# Target: the molecule itself
# Experiment: cross-linking
protein,measurement,value
B1,stoichiometry N,2
